Patent US10131702B2, “Glucagon-GLP-1-GIP triple agonist compounds” (priority 2013, dated 2018)
Like-named read-outs stand apart in the source and are kept apart here. Numbered stars: 1 amine (or outer) side, 2 acyl side, 3 side chain; on linkers, the order of the positions; unused ones are H or OH. Square brackets hold non-standard residues; d marks the D form. Side chains are listed from the residue outwards. * marks the point of attachment. C18 diacid = O=C(O)CCCCCCCCCCCCCCCCC(=O)*; γGlu = O=C(O)[C@H](CCC(=O)[*:2])N[*:1]; Stearoyl = CCCCCCCCCCCCCCCCCC(=O)*; Aib = CC(C)(N)C(=O)O

Columns and labels:
Assay in all cases: cell-based or functional assay
[1] = target: human glucagon receptor (human) (UniProt P47871)
[2] = target: human GIP receptor (human) (UniProt P48546)
[3] = target: T1, human glucagon-like peptide 1 receptor (human, UniProt P43220 24-463)
[4] = target: T2, human GIP receptor (human, UniProt P48546 22-466)
T2 sequence: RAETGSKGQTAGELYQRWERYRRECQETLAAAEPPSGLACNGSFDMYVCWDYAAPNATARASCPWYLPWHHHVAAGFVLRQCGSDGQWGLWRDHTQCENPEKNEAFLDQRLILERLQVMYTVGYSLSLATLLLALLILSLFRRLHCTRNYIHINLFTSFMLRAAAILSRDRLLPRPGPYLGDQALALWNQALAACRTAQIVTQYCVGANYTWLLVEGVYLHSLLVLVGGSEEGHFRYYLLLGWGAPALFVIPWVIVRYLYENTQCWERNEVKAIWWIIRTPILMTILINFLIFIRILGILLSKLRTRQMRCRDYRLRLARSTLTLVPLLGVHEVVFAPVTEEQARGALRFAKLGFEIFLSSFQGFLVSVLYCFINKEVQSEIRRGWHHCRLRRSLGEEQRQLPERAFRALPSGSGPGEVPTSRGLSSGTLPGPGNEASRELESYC

[5] = target: T3, human glucagon receptor (human, UniProt P47871 26-477)
[6] = target: T1, human glucagon-like peptide 1 receptor; remark: listed apart in the source
[7] = target: T2, human GIP receptor; remark: listed apart in the source
[8] = target: T3, human glucagon receptor; remark: listed apart in the source
[9] = target: human glucagon-like peptide 1 receptor (human) (UniProt P43220)
Sequence of human glucagon-like peptide 1 receptor (human) (P43220 24-463): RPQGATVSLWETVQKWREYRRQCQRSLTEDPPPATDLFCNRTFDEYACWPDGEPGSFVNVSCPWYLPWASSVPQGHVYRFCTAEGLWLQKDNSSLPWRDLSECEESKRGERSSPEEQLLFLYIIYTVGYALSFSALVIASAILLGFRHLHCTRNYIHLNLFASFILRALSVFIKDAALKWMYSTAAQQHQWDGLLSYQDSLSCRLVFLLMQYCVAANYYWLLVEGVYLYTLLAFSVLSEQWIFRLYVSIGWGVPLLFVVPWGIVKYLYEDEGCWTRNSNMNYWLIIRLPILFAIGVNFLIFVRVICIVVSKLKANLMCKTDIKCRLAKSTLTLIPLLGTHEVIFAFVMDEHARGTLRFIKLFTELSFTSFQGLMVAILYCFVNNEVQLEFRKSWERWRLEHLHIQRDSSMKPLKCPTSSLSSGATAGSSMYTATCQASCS

Sequence of human glucagon receptor (human) (P47871 26-477): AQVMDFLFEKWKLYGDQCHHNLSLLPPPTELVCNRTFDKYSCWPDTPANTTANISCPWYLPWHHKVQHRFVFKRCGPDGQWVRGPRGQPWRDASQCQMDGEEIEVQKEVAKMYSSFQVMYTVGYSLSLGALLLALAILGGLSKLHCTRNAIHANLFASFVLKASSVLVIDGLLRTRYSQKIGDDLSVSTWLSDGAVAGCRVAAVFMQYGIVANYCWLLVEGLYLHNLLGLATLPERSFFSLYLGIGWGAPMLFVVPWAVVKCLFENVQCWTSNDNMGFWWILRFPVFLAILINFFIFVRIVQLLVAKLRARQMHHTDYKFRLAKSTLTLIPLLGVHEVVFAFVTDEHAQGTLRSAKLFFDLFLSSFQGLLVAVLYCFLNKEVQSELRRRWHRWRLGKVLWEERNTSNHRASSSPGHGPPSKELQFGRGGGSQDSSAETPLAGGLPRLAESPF
T3 sequence (P47871 26-477): as above
Sequence of Exendin-4 (P26349 48-86 limits assumed): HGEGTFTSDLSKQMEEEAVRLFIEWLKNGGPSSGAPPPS

Molecule	EC50 (cAMP induction) [1] [nM]	EC50 (cAMP induction) [2] [nM]	EC50 (cAMP induction) [3] [nM]	EC50 (cAMP induction) [4] [nM]	EC50 (cAMP induction) [5] [nM]	EC50 (cAMP induction) [6] [nM]	EC50 (cAMP induction) [7] [nM]	EC50 (cAMP induction) [8] [nM]	EC50 (cAMP induction) [9] [nM]
Exendin-4 (from UniProt P26349 48-86) (peptide)	> 10	0.004							
YAQGTFTSDYSIYLEKKAAKEFVEWLLSA (HELM PEPTIDE1{Y.[Aib].Q.G.T.F.T.S.D.Y.S.I.Y.L.E.K.K.A.A.K.E.F.V.E.W.L.L.S.A.[am]}|PEPTIDE2{[CCCCCCCCCCCCCCCC(=O)[*:2]].[gGlu]}$PEPTIDE1,PEPTIDE2,16:R3-2:R2$$$V2.0; SMILES CCCCCCCCCCCCCCCC(=O)N[C@@H](CCC(=O)NCCCC[C@H](NC(=O)[C@H](CCC(=O)O)NC(=O)[C@H](CC(C)C)NC(=O)[C@H](Cc1ccc(O)cc1)NC(=O)[C@@H](NC(=O)[C@H](CO)NC(=O)[C@H](Cc1ccc(O)cc1)NC(=O)[C@H](CC(=O)O)NC(=O)[C@H](CO)NC(=O)[C@@H](NC(=O)[C@H](Cc1ccccc1)NC(=O)[C@@H](NC(=O)CNC(=O)[C@H](CCC(N)=O)NC(=O)C(C)(C)NC(=O)[C@@H](N)Cc1ccc(O)cc1)[C@@H](C)O)[C@@H](C)O)[C@@H](C)CC)C(=O)N[C@@H](CCCCN)C(=O)N[C@@H](C)C(=O)N[C@@H](C)C(=O)N[C@@H](CCCCN)C(=O)N[C@@H](CCC(=O)O)C(=O)N[C@@H](Cc1ccccc1)C(=O)N[C@H](C(=O)N[C@@H](CCC(=O)O)C(=O)N[C@@H](Cc1c[nH]c2ccccc12)C(=O)N[C@@H](CC(C)C)C(=O)N[C@@H](CC(C)C)C(=O)N[C@@H](CO)C(=O)N[C@@H](C)C(N)=O)C(C)C)C(=O)O) [Compound 24]			0.091	0.1	0.28	0.091	0.1	0.28	
H-Y[Aib]QGTFTSDYSIYLEKK([Peg3-Peg3-γGlu-C18 diacid])AQRAFVEWLLRA-NH2 [Compound 51]	1.4	0.033							0.026
YAQGTFTSDYSIYLEKKAAKEFVEWLLSA (HELM PEPTIDE1{Y.[Aib].Q.G.T.F.T.S.D.Y.S.I.Y.L.E.K.K.A.A.K.E.F.V.E.W.L.L.S.A.[am]}|PEPTIDE2{[CCCCCCCCCCCCCCCC(=O)[*:2]].[gGlu]}$PEPTIDE1,PEPTIDE2,17:R3-2:R2$$$V2.0; SMILES CCCCCCCCCCCCCCCC(=O)N[C@@H](CCC(=O)NCCCC[C@H](NC(=O)[C@H](CCCCN)NC(=O)[C@H](CCC(=O)O)NC(=O)[C@H](CC(C)C)NC(=O)[C@H](Cc1ccc(O)cc1)NC(=O)[C@@H](NC(=O)[C@H](CO)NC(=O)[C@H](Cc1ccc(O)cc1)NC(=O)[C@H](CC(=O)O)NC(=O)[C@H](CO)NC(=O)[C@@H](NC(=O)[C@H](Cc1ccccc1)NC(=O)[C@@H](NC(=O)CNC(=O)[C@H](CCC(N)=O)NC(=O)C(C)(C)NC(=O)[C@@H](N)Cc1ccc(O)cc1)[C@@H](C)O)[C@@H](C)O)[C@@H](C)CC)C(=O)N[C@@H](C)C(=O)N[C@@H](C)C(=O)N[C@@H](CCCCN)C(=O)N[C@@H](CCC(=O)O)C(=O)N[C@@H](Cc1ccccc1)C(=O)N[C@H](C(=O)N[C@@H](CCC(=O)O)C(=O)N[C@@H](Cc1c[nH]c2ccccc12)C(=O)N[C@@H](CC(C)C)C(=O)N[C@@H](CC(C)C)C(=O)N[C@@H](CO)C(=O)N[C@@H](C)C(N)=O)C(C)C)C(=O)O) [Compound 23]			0.11	0.13	0.14	0.14	0.11	0.14	
H-Y[Aib]QGTFTSDLSIALEKK([Peg3-Peg3-γGlu-Stearoyl])AQRAFVEWLLAQK-NH2 [Compound 48]	0.19	0.013							0.013
YAQGTFTSDYSKYLEKKAAKEFVEWLLSA (HELM PEPTIDE1{Y.[Aib].Q.G.T.F.T.S.D.Y.S.K.Y.L.E.K.K.A.A.K.E.F.V.E.W.L.L.S.A.[am]}|PEPTIDE2{[CCCCCCCCCCCCCCCC(=O)[*:2]].[gGlu]}$PEPTIDE1,PEPTIDE2,12:R3-2:R2$$$V2.0; SMILES CCCCCCCCCCCCCCCC(=O)N[C@@H](CCC(=O)NCCCC[C@H](NC(=O)[C@H](CO)NC(=O)[C@H](Cc1ccc(O)cc1)NC(=O)[C@H](CC(=O)O)NC(=O)[C@H](CO)NC(=O)[C@@H](NC(=O)[C@H](Cc1ccccc1)NC(=O)[C@@H](NC(=O)CNC(=O)[C@H](CCC(N)=O)NC(=O)C(C)(C)NC(=O)[C@@H](N)Cc1ccc(O)cc1)[C@@H](C)O)[C@@H](C)O)C(=O)N[C@@H](Cc1ccc(O)cc1)C(=O)N[C@@H](CC(C)C)C(=O)N[C@@H](CCC(=O)O)C(=O)N[C@@H](CCCCN)C(=O)N[C@@H](CCCCN)C(=O)N[C@@H](C)C(=O)N[C@@H](C)C(=O)N[C@@H](CCCCN)C(=O)N[C@@H](CCC(=O)O)C(=O)N[C@@H](Cc1ccccc1)C(=O)N[C@H](C(=O)N[C@@H](CCC(=O)O)C(=O)N[C@@H](Cc1c[nH]c2ccccc12)C(=O)N[C@@H](CC(C)C)C(=O)N[C@@H](CC(C)C)C(=O)N[C@@H](CO)C(=O)N[C@@H](C)C(N)=O)C(C)C)C(=O)O) [Compound 25]			0.28	0.25	0.3	0.28	0.25	0.3	
YAQGTFTSDYSKYLEKKAQKEFVEWLLSA (HELM PEPTIDE1{Y.[Aib].Q.G.T.F.T.S.D.Y.S.K.Y.L.E.K.K.A.Q.K.E.F.V.E.W.L.L.S.A.[am]}$$$$V2.0; SMILES CC(C)C[C@H](NC(=O)[C@H](CC(C)C)NC(=O)[C@H](Cc1c[nH]c2ccccc12)NC(=O)[C@H](CCC(=O)O)NC(=O)[C@@H](NC(=O)[C@H](Cc1ccccc1)NC(=O)[C@H](CCC(=O)O)NC(=O)[C@H](CCCCN)NC(=O)[C@H](CCC(N)=O)NC(=O)[C@H](C)NC(=O)[C@H](CCCCN)NC(=O)[C@H](CCCCN)NC(=O)[C@H](CCC(=O)O)NC(=O)[C@H](CC(C)C)NC(=O)[C@H](Cc1ccc(O)cc1)NC(=O)[C@H](CCCCN)NC(=O)[C@H](CO)NC(=O)[C@H](Cc1ccc(O)cc1)NC(=O)[C@H](CC(=O)O)NC(=O)[C@H](CO)NC(=O)[C@@H](NC(=O)[C@H](Cc1ccccc1)NC(=O)[C@@H](NC(=O)CNC(=O)[C@H](CCC(N)=O)NC(=O)C(C)(C)NC(=O)[C@@H](N)Cc1ccc(O)cc1)[C@@H](C)O)[C@@H](C)O)C(C)C)C(=O)N[C@@H](CO)C(=O)N[C@@H](C)C(N)=O) [Compound 22]			0.028	0.18	0.76	0.76	0.03	0.76	
YXQGTFTSDYSIALDKKAQRAFVNWLVAXKPSSGAPPPS (X at 2 and 29 = Aib; Lys 17 as K(Octadecanoyl-isoGlu-Peg3-Peg3); C-terminal amide (-NH2)) [Compound 42]	0.032	0.015							0.036
YXQGTFTSDYSIALDKKAQRAFVNWLVAXKPSSGAPPPS (X at 2 and 29 = Aib; Lys 17 as K(Octadecanoyl-Dapa-Peg3-Peg3); C-terminal amide (-NH2)) [Compound 43]	0.036	0.0098							0.014
